How the values were obtained:
Experiment in all cases: ELISA
Conditions in all cases: both partners purified
LukE = target: T1, LukE (Staphylococcus aureus, strain , UniProt O54081)
T1 construct: source: purified recombinant

[1] = target: T2, LukS, S subunit of the Panton-Valentine leukocidin (LukSF), recombinant holoprotein (Staphylococcus aureus, strain not …, UniProt O80066)
T2 construct: source: purified recombinant

[2] = target: T3, γ-hemolysin subunit HlgC, recombinant holoprotein (Staphylococcus aureus, strain not told, UniProt Q07227)
T3 construct: source: purified recombinant

LukD = target: T4, LukD (Staphylococcus aureus, strain , UniProt O54082)
T4 construct: source: purified recombinant

HlgB = target: T5, HlgB (Staphylococcus aureus, strain not told, UniProt P0A077)
T5 construct: source: purified recombinant

HlgA = target: T6, HlgA (Staphylococcus aureus, strain not told, UniProt P0A074)
T6 construct: source: purified recombinant

Binder	binding result (LukE)	binding result [1]	binding result [2]	binding result (LukD)	binding result (HlgB)	binding result (HlgA)
anti-HlgC1 MAb (antibody, V domains shown, also called anti-HIgC1 MAb; source: murine B-cell hybridoma (BALB/c mice immunized with recombinant HlgC)) VH: QVQLLQSGAELVKPGASVQLSCKASGFTFTKHDINWVRQRPEQGLEWIGWIFPGDGNTKYNEKFKGKATLTTDKSSSTAYMQLNGLTSEDSAVYFCAKEIFYWGQGTSVTVSS VL: DIVMTQSPSSLTVTAGEKVTMSCKSSQSLLNSENQRNYLTWYQQKPGQPPKLLISWASTRESGVPDRFTGSGSGTDFTLTISSVQAEDLAVYYCQNDFSYPLTFGAGTKLELR	no binding (tested: MAb at 2 μg/ml)	binds	binds	no binding (tested: MAb at 2 μg/ml)	no binding (tested: MAb at 2 μg/ml)	no binding (tested: MAb at 2 μg/ml)
anti-HlgC2 MAb (antibody, V domains shown, also called anti-HIgC2 MAb; source: murine B-cell hybridoma (BALB/c mice immunized with recombinant HlgC)) VH: QVQLKESGPGLVAPSQSLSITCTVSGFSLTNFAVHWVRQPRGKGLEWLGSIWADGRTIYSALMSRLSISKDNSKSQVFLNMNSLQTDDTAMYYCATPFYFGYDGGYAMDHWGQGTSVTVSS VL: DVLMTQTPLSLPVSLGDQASISCRSSQSIVHGSGNTYLEWYLQKPGQSPKLLIYKVSNRLSGVPDRISGSGSGTDFTLKINRVEAEDLGVYYCFQGSHVPYTFGGGTKLEMK	no binding (tested: MAb at 2 μg/ml)	binds	binds	no binding (tested: MAb at 2 μg/ml)	no binding (tested: MAb at 2 μg/ml)	no binding (tested: MAb at 2 μg/ml)
anti-HlgC3 MAb (antibody, V domains shown, also called anti-HIgC3 MAb; source: murine B-cell hybridoma (BALB/c mice immunized with recombinant HlgC)) VH: QVQLLQSGAELVKPGASVQLSCKASGFTFTKYDINWVRQRPDQGLEWIGWIFPGDGNTKYNDKFKGKVILTTDKSSSTAYMQLSRLTSEDSAVYFCAREIFYWGQGTSVTVSA VL: DIVMTQSPSSLTVTAGEKVTMSCKSSQSLFNSENQRNYLTWYQQKPRQPPKLLISWASTRESEVPDRFTGSGSGTDFTLTISSVQAEDLAVYYCQNDYSYPLTFGAGTKLELR	no binding (tested: MAb at 2 μg/ml)	binds	binds	no binding (tested: MAb at 2 μg/ml)	no binding (tested: MAb at 2 μg/ml)	no binding (tested: MAb at 2 μg/ml)
anti-HlgC4 MAb (antibody, V domains shown, also called anti-HIgC4 MAb; source: murine B-cell hybridoma (BALB/c mice immunized with recombinant HlgC)) VH: QVQLLQSGAELVKPGASVQLSCKASGFTFTKYDINWVRQRPDQGLEWIGWIFPGDGNTKYNDKFKGKVILTTDKSSSTAYMQLTRLTSEDSAVYFCAREIFYWGQGTSVTVSS VL: DIVMTQSPSSLTVTAGEKVTMSCKSSQSLLNSENQRNYLTWYQQKPGQPPKLLISWASTRESGVPDRFTGSGSGTDFTLTISSVQAEDLAVYYCQNDYSYPLTFGAGTKLELR	no binding (tested: MAb at 2 μg/ml)	binds	binds	no binding (tested: MAb at 2 μg/ml)	no binding (tested: MAb at 2 μg/ml)	no binding (tested: MAb at 2 μg/ml)

— article PMC7298706 (mBio, 2020)
